Measured values taken from patent US8829044B2, “Stabilized vitamin C derivatives having a peptide molecule, preparation method thereof, and composition containing the same” (Peotron Co. Ltd., priority 2006, dated 2014).
Blank lines part the entries; values can stand above or below the compound they belong to. Peptide text beside a SMILES is read from it. * marks the point of attachment. X1 = O=C(CCC(=O)*)O[C@@H](CO)[C@H]1OC(=O)C(OP(=O)(O)O)=C1O; X2 = O=C(CCC(=O)*)O[C@@H](CO)[C@H]1OC(=O)C(O)=C1O

Assay: physchem
Experimental: Stability of each substance was evaluated, while being maintained at 25° C. and 50° C. for 30 days, by observing the change of UV (254 nm) absorbance.

[1] = buffer, Remaining test substance (%)

SMILES: C[C@@H](O)[C@H](NC(=O)[C@H](CCCCN)NC(=O)CCC(=O)O[C@@H](CO)[C@H]1OC(=O)C(OP(=O)(O)O)=C1O)C(=O)N[C@H](C(=O)N[C@@H](CCCCN)C(=O)N[C@@H](CO)C(=O)O)[C@@H](C)O [Ic-1, 2-phospho-5-(succinyl-lysine-threonine-threonine-lysine-serine) ascorbic acid] (X1-KTTKS-OH)
remaining at 24 h, 10 μg/mL [1]: 100%
remaining at 48 h, 10 μg/mL [1]: 100%
remaining at 72 h, 10 μg/mL [1]: 100%
remaining at 120 h, 10 μg/mL [1]: 100%
remaining at 240 h, 10 μg/mL [1]: 100%

Remaining test substance (%) (buffer, 0 day, 10 μg/mL): 100%
Remaining test substance (%) (buffer, 2 day, 10 μg/mL): 0%
Remaining test substance (%) (buffer, 3 day, 10 μg/mL): 0%
Remaining test substance (%) (buffer, 5 day, 10 μg/mL): 0%
Remaining test substance (%) (buffer, 10 day, 10 μg/mL): 0%
Remaining test substance (%) (buffer, 20 day, 10 μg/mL): 0%
Remaining test substance (%) (buffer, 30 day, 10 μg/mL): 0%
SMILES: O=C1O[C@H]([C@@H](O)CO)C(O)=C1O [Vitamin C, ascorbic acid]

SMILES: C[C@@H](O)[C@H](NC(=O)[C@H](CCCCN)NC(=O)CCC(=O)O[C@@H](CO)[C@H]1OC(=O)C(O)=C1O)C(=O)N[C@H](C(=O)N[C@@H](CCCCN)C(=O)N[C@@H](CO)C(=O)O)[C@@H](C)O [succinoyl ascorbyl pentapeptide] (X2-KTTKS-OH)
remaining at 24 h, 10 μg/mL (buffer, Remaining test substance (%), day 1, 25° C., 10 μg/mL in purified water): 60%
remaining at 24 h, 10 μg/mL (buffer, Remaining test substance (%), day 1, 50° C., 10 μg/mL in purified water): 50%
remaining at 48 h, 10 μg/mL (buffer, Remaining test substance (%), day 2, 25° C., 10 μg/mL in purified water): 20%
remaining at 48 h, 10 μg/mL (buffer, Remaining test substance (%), day 2, 50° C., 10 μg/mL in purified water): 10%
remaining at 72 h, 10 μg/mL (buffer, Remaining test substance (%), day 3, 25° C., 10 μg/mL in purified water): 10%
remaining at 72 h, 10 μg/mL (buffer, Remaining test substance (%), day 3, 50° C., 10 μg/mL in purified water): 0%
remaining at 120 h, 10 μg/mL (buffer, Remaining test substance (%), day 5, 50° C., 10 μg/mL in purified water): 0%
remaining at 240 h, 10 μg/mL (buffer, Remaining test substance (%), day 10, 50° C., 10 μg/mL in purified water): 0%
remaining at 480 h, 10 μg/mL (buffer, Remaining test substance (%), day 20, 50° C., 10 μg/mL in purified water): 0%
remaining at 720 h, 10 μg/mL (buffer, Remaining test substance (%), day 30, 50° C., 10 μg/mL in purified water): 0%
Remaining test substance (%) (day 0, 25° C., 10 μg/mL in purified water): 100%
Remaining test substance (%) (day 0, 50° C., 10 μg/mL in purified water): 100%
Remaining test substance (%) (day 5, 25° C., 10 μg/mL in purified water): 0%
Remaining test substance (%) (day 10, 25° C., 10 μg/mL in purified water): 0%
Remaining test substance (%) (day 20, 25° C., 10 μg/mL in purified water): 0%
Remaining test substance (%) (day 30, 25° C., 10 μg/mL in purified water): 0%
